Reference: US20100260668A1 (published 2010)
Values belong to the binder of their own block, whether it stands above or below them.

Legend:
HGF-His tag = target: T1, HGF-His tag (UniProt P14210 32-728); assay: direct bind ELISA (C-term VD)
T1 construct: Bought antigen coated on the ELISA plate; not shown: His tag

VEGF 1-165 aa = target: T2, VEGF 1-165 aa (UniProt P15692 27-191); assay: direct bind ELISA (N-term VD);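 also: ELISA screen of antibodies for binding to plate-immobilized target antigen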
T2 construct: Bought antigen coated on the ELISA plate

[1] = target: VEGF (VEGF 1-165 aa, R&D Systems 293-VE-010) (UniProt P15692 27-191); assay: Direct bind ELISA, VEGF coated on plate;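 also: ELISA screening of antibodies for binding to the plate-coated target antigen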
Chain of VEGF (VEGF 1-165 aa, R&D Systems 293-VE-010) (P15692 other isoform, or with tags, fused parts or gaps limits assumed): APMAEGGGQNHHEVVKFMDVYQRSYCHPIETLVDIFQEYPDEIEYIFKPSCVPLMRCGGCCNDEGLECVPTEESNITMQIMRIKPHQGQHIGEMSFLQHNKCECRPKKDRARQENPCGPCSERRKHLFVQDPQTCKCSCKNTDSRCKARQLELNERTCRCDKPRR

T1 sequence (P14210 32-728 limits assumed): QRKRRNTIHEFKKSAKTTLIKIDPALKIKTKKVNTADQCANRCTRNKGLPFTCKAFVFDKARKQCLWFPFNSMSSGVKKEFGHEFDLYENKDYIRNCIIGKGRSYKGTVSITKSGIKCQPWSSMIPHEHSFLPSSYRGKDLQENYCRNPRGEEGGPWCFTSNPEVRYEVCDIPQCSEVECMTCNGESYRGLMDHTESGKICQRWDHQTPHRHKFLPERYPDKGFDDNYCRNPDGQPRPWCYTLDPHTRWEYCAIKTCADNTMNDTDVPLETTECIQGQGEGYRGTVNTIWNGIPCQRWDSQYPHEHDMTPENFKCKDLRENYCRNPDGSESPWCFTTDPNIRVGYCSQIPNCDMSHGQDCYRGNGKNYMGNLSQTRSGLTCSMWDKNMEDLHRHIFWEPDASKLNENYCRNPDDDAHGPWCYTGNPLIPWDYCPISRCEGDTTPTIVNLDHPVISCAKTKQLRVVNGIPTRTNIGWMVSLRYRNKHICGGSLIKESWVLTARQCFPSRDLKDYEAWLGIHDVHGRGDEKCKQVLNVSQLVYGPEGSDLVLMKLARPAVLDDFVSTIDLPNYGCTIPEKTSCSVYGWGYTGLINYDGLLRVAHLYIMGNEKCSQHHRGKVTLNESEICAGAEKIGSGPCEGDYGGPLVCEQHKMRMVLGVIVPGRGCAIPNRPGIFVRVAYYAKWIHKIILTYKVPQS
T2 sequence (P15692 other isoform, or with tags, fused parts or gaps limits assumed): as the sequence (P15692 other isoform, or with tags, fused parts or gaps limits assumed) above

B1: DVD646 (bispecific antibody, human IgG1, kappa)
heavy: not shown
light: DIQMTQSPSSLSASVGDRVTITCRASQVIRRSLAWYQQKPGKAPKLLIYAASNLASGVPSRFSGSGSGTDFTLTISSLQPEDFATYYCQQSNTSPLTFGQGTKVEIKRTVAAPSVFIFPPDIQMTQSPSSVSASVGDRVTITCRASQGISSWLAWYQQKPGKAPNLLIYEASSLQSGVPSRFGGSGSGTDFTLTISSLQPEDFATYYCQQANGFPWTFGQGTKVEIKRTVAAPSVFIFPPSDEQLKSGTASVVCLLNNFYPREAKVQWKVDNALQSGNSQESVTEQDSKDSTYSLSSTLTLSKADYEKHKVYACEVTHQGLSSPVTKSFNRGEC
notes: DVD-Ig; N-term VD AB071 (VEGF), C-term VD AB012 (HGF); HC linker long, LC linker long; vectors V1/V2
EC50 (HGF-His tag): 0.49 nM
EC50 (VEGF 1-165 aa): 30.7 nM

B3: DVD648 (bispecific antibody, human IgG1, kappa)
heavy: not shown
light: DIQMTQSPSSLSASVGDRVTITCSASQDISNYLNWYQQKPGKAPKVLIYFTSSLHSGVPSRFSGSGSGTDFTLTISSLQPEDFATYYCQQYSTVPWTFGQGTKVEIKRTVAAPDIQMTQSPSSVSASVGDRVTITCRASQGISSWLAWYQQKPGKAPNLLIYEASSLQSGVPSRFGGSGSGTDFTLTISSLQPEDFATYYCQQANGFPWTFGQGTKVEIKRTVAAPSVFIFPPSDEQLKSGTASVVCLLNNFYPREAKVQWKVDNALQSGNSQESVTEQDSKDSTYSLSSTLTLSKADYEKHKVYACEVTHQGLSSPVTKSFNRGEC
notes: DVD-Ig; HC linker long, LC linker short; vectors V1/V2
EC50 (HGF-His tag): 4.17 nM
EC50 (VEGF 1-165 aa): 1.72 nM

B5: DVD522 (bispecific antibody, IgG1)
VH: EVQLVESGGGLVQPGGSLRLSCAASGFTINASWIHWVRQAPGKGLEWVGAIYPYSGYTNYADSVKGRFTISADTSKNTAYLQMNSLRAEDTAVYYCARWGHSTSPWAMDYWGQGTLVTVSSASTKGPSVFPLAPEVQLQQSGPELEKPGASVKISCKASGYSFTGYNMNWVKQSNGKSLEWIGNIDPYFGGTNYNQKFKGKATLTVDKSSSTAYMQLKSLTSEDSAVYYCARNYDYDGGCFDYWGQGTTLTVSS
VL: DIQMTQSPSSLSASVGDRVTITCRASQVIRRSLAWYQQKPGKAPKLLIYAASNLASGVPSRFSGSGSGTDFTLTISSLQPEDFATYYCQQSNTSPLTFGQGTKVEIKRTVAAPSVFIFPPQAVVTQESALTTSPGETVTLTCRSSTGAVTTSNYANWVQEKPDHLFTGLIGGTNNRAPGVPARFSGSLIGDKAALTITGAQTEDEAIYFCALWYSNHWVFGGGTKLTVLG
notes: DVD-Ig, outer AB071 / inner AB073; HC linker long, LC linker long; also called DVD522H; DVD522L
EC50 [1]: 23.5 nM

B6: DVD534 (bispecific antibody, IgG1)
VH: EVQLVESGGGLVQPGGSLRLSCAASGFTINASWIHWVRQAPGKGLEWVGAIYPYSGYTNYADSVKGRFTISADTSKNTAYLQMNSLRAEDTAVYYCARWGHSTSPWAMDYWGQGTLVTVSSASTKGPEVQLQQSGPELEKPGASVKISCKASGYSFTGYNMNWVKQSNGKSLEWIGNIDPYFGGTNYNQKFKGKATLTVDKSSSTAYMQLKSLTSEDSAVYYCARNYDYDGGCFDYWGQGTTLTVSS
VL: B5 VL
notes: DVD-Ig, outer AB071 / inner AB073; HC linker short, LC linker long; also called DVD534H; DVD534L
EC50 [1]: 23.6 nM

B7: DVD528 (bispecific antibody, IgG1)
VH: B5 VH
VL: DIQMTQSPSSLSASVGDRVTITCRASQVIRRSLAWYQQKPGKAPKLLIYAASNLASGVPSRFSGSGSGTDFTLTISSLQPEDFATYYCQQSNTSPLTFGQGTKVEIKRTVAAPQAVVTQESALTTSPGETVTLTCRSSTGAVTTSNYANWVQEKPDHLFTGLIGGTNNRAPGVPARFSGSLIGDKAALTITGAQTEDEAIYFCALWYSNHWVFGGGTKLTVLG
notes: DVD-Ig, outer AB071 / inner AB073; HC linker long, LC linker short; also called DVD528H; DVD528L
EC50 [1]: 27.7 nM

B8: DVD644 (bispecific antibody, human IgG1, kappa)
heavy: not shown
light: DIQMTQSPSSLSASVGDRVTITCRASQDVSTAVAWYQQKPGKAPKLLIYSASFLYSGVPSRFSGSGSGTDFTLTISSLQPEDFATYYCQQSYTTPPTFGQGTKVEIKRTVAAPSVFIFPPDIQMTQSPSSVSASVGDRVTITCRASQGISSWLAWYQQKPGKAPNLLIYEASSLQSGVPSRFGGSGSGTDFTLTISSLQPEDFATYYCQQANGFPWTFGQGTKVEIKRTVAAPSVFIFPPSDEQLKSGTASVVCLLNNFYPREAKVQWKVDNALQSGNSQESVTEQDSKDSTYSLSSTLTLSKADYEKHKVYACEVTHQGLSSPVTKSFNRGEC
notes: DVD-Ig; HC linker long, LC linker long; vectors V1/V2
EC50 (HGF-His tag): 0.29 nM
EC50 (VEGF 1-165 aa): 5.31 nM

B10: DVD642 (bispecific antibody, human IgG1, kappa)
heavy: not shown
light: DIQMTQSPSSLSASVGDRVTITCSASQDISNYLNWYQQKPGKAPKVLIYFTSSLHSGVPSRFSGSGSGTDFTLTISSLQPEDFATYYCQQYSTVPWTFGQGTKVEIKRTVAAPSVFIFPPDIQMTQSPSSVSASVGDRVTITCRASQGISSWLAWYQQKPGKAPNLLIYEASSLQSGVPSRFGGSGSGTDFTLTISSLQPEDFATYYCQQANGFPWTFGQGTKVEIKRTVAAPSVFIFPPSDEQLKSGTASVVCLLNNFYPREAKVQWKVDNALQSGNSQESVTEQDSKDSTYSLSSTLTLSKADYEKHKVYACEVTHQGLSSPVTKSFNRGEC
notes: as for B8
EC50 (HGF-His tag): 0.87 nM
EC50 (VEGF 1-165 aa): 6.35 nM

B12: DVD521 (bispecific antibody, IgG1)
VH: EVQLQQSGPELEKPGASVKISCKASGYSFTGYNMNWVKQSNGKSLEWIGNIDPYFGGTNYNQKFKGKATLTVDKSSSTAYMQLKSLTSEDSAVYYCARNYDYDGGCFDYWGQGTTLTVSSASTKGPSVFPLAPEVQLVESGGGLVQPGGSLRLSCAASGFTINASWIHWVRQAPGKGLEWVGAIYPYSGYTNYADSVKGRFTISADTSKNTAYLQMNSLRAEDTAVYYCARWGHSTSPWAMDYWGQGTLVTVSS
VL: QAVVTQESALTTSPGETVTLTCRSSTGAVTTSNYANWVQEKPDHLFTGLIGGTNNRAPGVPARFSGSLIGDKAALTITGAQTEDEAIYFCALWYSNHWVFGGGTKLTVLGQPKAAPSVTLFPPDIQMTQSPSSLSASVGDRVTITCRASQVIRRSLAWYQQKPGKAPKLLIYAASNLASGVPSRFSGSGSGTDFTLTISSLQPEDFATYYCQQSNTSPLTFGQGTKVEIKR
notes: DVD-Ig, outer AB073 / inner AB071; HC linker long, LC linker long; also called DVD521H; DVD521L
EC50 [1]: 655 nM

B13: DVD527 (bispecific antibody, IgG1)
VH: B12 VH
VL: QAVVTQESALTTSPGETVTLTCRSSTGAVTTSNYANWVQEKPDHLFTGLIGGTNNRAPGVPARFSGSLIGDKAALTITGAQTEDEAIYFCALWYSNHWVFGGGTKLTVLGQPKAAPDIQMTQSPSSLSASVGDRVTITCRASQVIRRSLAWYQQKPGKAPKLLIYAASNLASGVPSRFSGSGSGTDFTLTISSLQPEDFATYYCQQSNTSPLTFGQGTKVEIKR
notes: DVD-Ig, outer AB073 / inner AB071; HC linker long, LC linker short; also called DVD527H; DVD527L
EC50 [1]: 2380 nM

Second part, the binder after the results:

EC50 (HGF-His tag): 0.94 nM
EC50 (VEGF 1-165 aa): 28.7 nM
B2: DVD658 (bispecific antibody, human IgG1, kappa)
heavy: not shown
light: B1 light
notes: DVD-Ig; N-term VD AB071 (VEGF), C-term VD AB012 (HGF); HC linker short, LC linker long; vectors V1/V2

EC50 (HGF-His tag): 4.63 nM
EC50 (VEGF 1-165 aa): 2.67 nM
B4: DVD650 (bispecific antibody, human IgG1, kappa)
heavy: not shown
light: DIQMTQSPSSLSASVGDRVTITCRASQDVSTAVAWYQQKPGKAPKLLIYSASFLYSGVPSRFSGSGSGTDFTLTISSLQPEDFATYYCQQSYTTPPTFGQGTKVEIKRTVAAPDIQMTQSPSSVSASVGDRVTITCRASQGISSWLAWYQQKPGKAPNLLIYEASSLQSGVPSRFGGSGSGTDFTLTISSLQPEDFATYYCQQANGFPWTFGQGTKVEIKRTVAAPSVFIFPPSDEQLKSGTASVVCLLNNFYPREAKVQWKVDNALQSGNSQESVTEQDSKDSTYSLSSTLTLSKADYEKHKVYACEVTHQGLSSPVTKSFNRGEC
notes: as for B3

EC50 (HGF-His tag): 1.27 nM
EC50 (VEGF 1-165 aa): 7.87 nM
B9: DVD656 (bispecific antibody, human IgG1, kappa)
heavy: not shown
light: B8 light
notes: DVD-Ig; HC linker short, LC linker long; vectors V1/V2

EC50 (HGF-His tag): 0.91 nM
EC50 (VEGF 1-165 aa): 3.71 nM
B11: DVD654 (bispecific antibody, human IgG1, kappa)
heavy: not shown
light: B10 light
notes: as for B9

EC50 (HGF-His tag): 4.71 nM
EC50 (VEGF 1-165 aa): 13.8 nM
B14: DVD652 (bispecific antibody, human IgG1, kappa)
heavy: not shown
light: DIQMTQSPSSLSASVGDRVTITCRASQVIRRSLAWYQQKPGKAPKLLIYAASNLASGVPSRFSGSGSGTDFTLTISSLQPEDFATYYCQQSNTSPLTFGQGTKVEIKRTVAAPDIQMTQSPSSVSASVGDRVTITCRASQGISSWLAWYQQKPGKAPNLLIYEASSLQSGVPSRFGGSGSGTDFTLTISSLQPEDFATYYCQQANGFPWTFGQGTKVEIKRTVAAPSVFIFPPSDEQLKSGTASVVCLLNNFYPREAKVQWKVDNALQSGNSQESVTEQDSKDSTYSLSSTLTLSKADYEKHKVYACEVTHQGLSSPVTKSFNRGEC
notes: DVD-Ig; N-term VD AB071 (VEGF), C-term VD AB012 (HGF); HC linker long, LC linker short; vectors V1/V2
